Residue numbers refer to the chain shown, from its start. “And” between values parts separate entries of the source, which are not always exact repeats. Equal entries are not always repeated.
Key:
[1] = target: recombinant human IL-23 (human) (UniProt P29460); assay: cell-based or functional assay
[2] = target: natural human IL-23 from activated THP-1 cells (human) (UniProt P29460); assay: cell-based or functional assay
[3] = target: cynomologous IL-23 (cynomolgus monkey); assay: SPR, ProteOn XPR36, global 1:1 fit
[4] = target: Human IL-23 no linker (human) (UniProt P29460); assay: SPR, ProteOn XPR36, global 1:1 fit
Chain of Human IL-23 no linker (human) (chain, as listed by the source limits assumed, chain 1 of 2): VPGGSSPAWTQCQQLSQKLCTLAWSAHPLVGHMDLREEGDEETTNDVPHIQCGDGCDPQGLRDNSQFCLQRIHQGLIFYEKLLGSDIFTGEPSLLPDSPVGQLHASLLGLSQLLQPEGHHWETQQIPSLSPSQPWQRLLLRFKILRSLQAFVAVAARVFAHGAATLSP
Chain of Human IL-23 no linker (human) (P29460 23-328 limits assumed, chain 2 of 2): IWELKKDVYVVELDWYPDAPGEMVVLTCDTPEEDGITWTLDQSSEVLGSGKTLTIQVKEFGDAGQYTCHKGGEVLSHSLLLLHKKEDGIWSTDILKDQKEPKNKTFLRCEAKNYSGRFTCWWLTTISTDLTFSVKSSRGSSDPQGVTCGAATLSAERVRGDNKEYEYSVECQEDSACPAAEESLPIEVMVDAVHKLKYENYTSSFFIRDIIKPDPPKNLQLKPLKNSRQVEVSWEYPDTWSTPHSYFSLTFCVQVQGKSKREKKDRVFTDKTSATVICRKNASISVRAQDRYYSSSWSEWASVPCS

[5] = target: Human IL-23 with linker (human) (UniProt P29460); assay: SPR, ProteOn XPR36, global 1:1 fit

Chain of recombinant human IL-23 (human) (chain, as listed by the source limits assumed, chain 1 of 2): as the sequence (chain, as listed by the source limits assumed, chain 1 of 2) above
Chain of recombinant human IL-23 (human) (P29460 23-328 limits assumed, chain 2 of 2): as the sequence (P29460 23-328 limits assumed, chain 2 of 2) above
Chain of natural human IL-23 from activated THP-1 cells (human) (chain, as listed by the source limits assumed, chain 1 of 2): as the sequence (chain, as listed by the source limits assumed, chain 1 of 2) above
Chain of natural human IL-23 from activated THP-1 cells (human) (P29460 23-328 limits assumed, chain 2 of 2): as the sequence (P29460 23-328 limits assumed, chain 2 of 2) above

B1: antibody C1273 (disclosed in WO 2007/005955) (antibody, from another filing, V domains shown)
VH: DVNLVESGGGLVKPGGSLKLSCAASGFTFSSYTMSWVRQTPEKRLEWVATISSGGTYTYYPDSVKGRFTISRDNAKNTLYLQMSSLKSEDTAMFYCTRDNHAYDRGPFFDYWGQGATLTVSS
VL: DIVMSQSPSSLVVSVGEKVTMSCKSSQNLFYRSNQKNHLAWYQQKPGQSPTLLIYWTSTRESGVPDRFTGSGSGTDFTLTISRVKAEDLAVYYCQQYYSYPPTFGGGTKLEIK
IC50, IL-23 induced STAT3 phosphorylation in human DB cells (phospho-STAT3 ELISA) [1]: 0.163 nM and 0.438 nM | IC50, IL-23 stimulated IL-17 production from mouse splenocytes [2]: 0.093 nM and 0.044 nM

B2: Antibody 6H12 (disclosed in WO 2007/027714) (antibody, from another filing, V domains shown)
VH: EVHLQQSGPELVKPGASVKMSCKASGYTFNRYLIHWVKQKPGQGLEWIGYINPNNDGTNYNEKFKGKATLTSDKSSSTAYMELSSLTSEDSAVYYCAANWDQAYWGQGTLVTVSA
VL: DIVMTQSPATLSVTPGDRVSLSCRASQSISDYLHWYQQKSHESPRLLIKYTSQSISGIPSRFSGSGSGSDFTLSINSVEPEDVGVYYCQNGHSFPFTFGSGTKLEIKR
IC50, IL-23 stimulated IL-17 production from mouse splenocytes [1]: 1.6 nM and 0.806 nM and 1.3 nM | Kd [3]: 0.157 nM | koff [3]: 0.000156 s⁻¹ | kon [3]: 991000 M⁻¹ s⁻¹ | Kd [4]: 0.214 nM | koff [4]: 0.000107 s⁻¹ | kon [4]: 499000 M⁻¹ s⁻¹

B3: Antibody B (antibody, human IgG1, kappa, L234A L235A, V domains shown)
VH: QVQLVQSGAEVKKPGSSVKVSCKASGFTFTDQTIHWVRQAPGQGLEWMGYIYPRDDSPKYNENFKGKVTLTADKSTSTAYMELSSLRSEDTAVYYCAIPDRSGYAWFIYWGQGTLVTVSS
VL: DIQMTQSPSSLSASVGDRVTITCKASRDVAIAVAWYQQKPGKVPKLLIYWASTRHTGVPSRFSGSGSRTDFTLTISSLQPEDVADYFCHQYSSYPFTFGSGTKLEIKR
Kd [5]: < 0.001 nM | koff [5]: < 1e-06 s⁻¹ | kon [5]: 356000 M⁻¹ s⁻¹

B4: Antibody D (antibody, human IgG1, kappa, L234A L235A, V domains shown)
VH: B3 VH
VL: B3 VL with I48L, Y49F, S60D, R68G, V83L, F87Y, S100Q
Kd [5]: 0.107 nM | koff [5]: 4.07e-05 s⁻¹ | kon [5]: 382000 M⁻¹ s⁻¹
